T1: Tau 407-421 peptide (Truncated Asp421 Epitope of Tau)
T1 construct: Immobilized in the ELISA, analyte in the Biacore analysis
T1 peptide: HLSNVSSTGSIDMVD

T2: Tau 407-423 peptide (non-truncated Asp421 epitope)
T2 construct: Immobilized in the ELISA, analyte in the Biacore analysis
T2 peptide: HLSNVSSTGSIDMVDSP


How the values were obtained:
[1] = biological target: T1, Tau 407-421 peptide (Truncated Asp421 …); test: Biacore (SPR), peptide as analyte
[2] = biological target: T2, Tau 407-423 peptide (non-truncated …); test: Biacore (SPR), peptide as analyte
[3] = biological target: T1, Tau 407-421 peptide (Truncated Asp421 …); test: ELISA
Text: (§1) The data thus confirms the ability of Antibodies 1G11A10, 5G2A3 and 5G2G6 to immunospecifically bind to the Truncated Asp421 Epitope of Tau.

[4] = biological target: T2, Tau 407-423 peptide (non-truncated …); test: ELISA, immobilized peptide
Text: as §1

[5] = biological target: T2, Tau 407-423 peptide (non-truncated …); test: Biacore, peptide as analyte

Kd [1] [µM]	Kd [2] [µM]	binding result [3]	binding result [4]	binding result [5]	Binder
–	–	binds	no binding	–	Antibody 1G10D2 (antibody, V domains shown) VH: EVKLVESGGDLVTPGGSLKVSCAASGLTFSDSAMSWVRLTPEKRLEWVASISTGGATYYPDGLKGRFTISRDDARNILFLQMNSLRSEDTAMYYCTRRGVSSGNLFTYWGQGTLVTVSA VL: DVLMTQTPLSLPVSLGDQASISCRSSQSILNSNGNTYLEWYLQKPGQSPKLLIYKVSNRFSGVPDRFSGSGSGTDFTLKISRVEAEDLGVYYCFQGSHVPWTFGGGTKLEIK
1.07	–	–	–	no binding	Antibody 1G11A10 (antibody, V domains shown, Hybridoma-derived monoclonal antibody) VH: EVKLVESGGGLMKPGGSLKLSCAASGFTFSSYAMSWVRQSPEKRLEWVASISSGGQTYSPDSVKGRFTISRDNARNILYLQMRNLRSEDTAMYYCASRGDPTMTATLFVYWGQGTLVTVS VL: DVLMTQTPLSLPVSLGDQASISCRSSQSIINSNGNTYLEWYLQKPGQSPKLLIYKVSNRFSGVPDRFSGSGSGTDFTLKISRVETEDLGIYYCFQGSHVPWTFGGGTKLEIK

Continued, binder first:

Binder	Kd [1] [µM]	Kd [2] [µM]	binding result [3]	binding result [4]	binding result [5]
Antibody 5G2A3 (antibody, V domains shown, Hybridoma-derived monoclonal antibody; also called 5G2A3/5G2G6) VH: EVKLVESGGGLVKPGGSLTLSCAASGFTFSSYAMSWVRQTPEKSLEWVASISSGGNTFYPDTVKGRFTISRDNARNILYLQMSGLRSEDTAIYYCARRGDPNMITTLFGYWGQGTLVTISA VL: DVLMTQTPLSLPVSLGDQASISCRSSQSILHRNGNTYLDWFLLKPGQSPKLLIYKVSNRFSGVPDRFSGSGSGTDFTLKISRVEAEDLGVYYCFQGSHVPWTFGGGTKLEIK	0.00746	5.07	–	–	–
Antibody 5B3C11 (antibody, V domains shown, Tested as hybridoma culture supernatant) VH: EVQLVESGGGLVKPGGSLKLSCAASGFTFSNYALSWVRQTPEKRLEWVASISSGGNTYYPDSVKGRFTISRDNARNILYLQMSSLRSEDTAMFYCTSRGDTTLITTLFTYWGQGTLVTVSA VL: DVLMTQTPLSLPVSLGDQASISCRSNQSILHSNGNTYLDWYLQKPGQSPKLLIYKVSNRFSGVPDRFSGSGSGTDFTLRISRVEAEDLGVYYCFQGSHIPWTFGGGTKLEIK	–	–	–	no binding	–

From patent publication US20210198349A1 (NEW YORK UNIVERSITY, published 2021)
